Source: PMC8488656

These substances were tested against colicin E7 (ColE7) (UniProt Q47112) (assay: ELISA).
Sequence of UniProt Q47112 (Q47112 whole entry): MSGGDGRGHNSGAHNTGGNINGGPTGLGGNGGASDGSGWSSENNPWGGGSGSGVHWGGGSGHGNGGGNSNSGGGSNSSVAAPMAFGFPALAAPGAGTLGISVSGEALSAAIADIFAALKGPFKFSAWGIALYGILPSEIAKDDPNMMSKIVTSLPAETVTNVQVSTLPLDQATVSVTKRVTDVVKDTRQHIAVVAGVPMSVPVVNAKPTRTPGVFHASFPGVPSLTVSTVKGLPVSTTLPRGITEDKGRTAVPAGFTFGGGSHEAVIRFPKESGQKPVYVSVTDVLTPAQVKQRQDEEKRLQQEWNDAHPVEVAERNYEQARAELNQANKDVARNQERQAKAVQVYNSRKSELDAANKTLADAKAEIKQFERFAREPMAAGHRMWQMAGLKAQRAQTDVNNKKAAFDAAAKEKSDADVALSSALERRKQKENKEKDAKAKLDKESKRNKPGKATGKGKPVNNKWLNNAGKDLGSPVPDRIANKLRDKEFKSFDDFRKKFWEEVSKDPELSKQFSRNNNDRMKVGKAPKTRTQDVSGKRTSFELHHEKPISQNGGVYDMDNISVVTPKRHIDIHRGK

| Substance | agly/ai (binding activity, glycosylated over aglycosylated variant) |
| --- | --- |
| YebF-Im7^N30, glycosylated (from UniProt Q03708 1-87) (natural protein) | 1.36 |
| YebF-Im7^N49, glycosylated (from UniProt Q03708 1-87) (natural protein) | 1.91 |
| YebF-Im7^N58, glycosylated (from UniProt Q03708 1-87) (natural protein) | 3.44 |
| YebF-Im7^N31, glycosylated (from UniProt Q03708 1-87) (natural protein) | 0.55 |
